T1: mouse CASK N-terminal kinase domain (residues 1–323) fused with the N-terminal His6-tag (mouse, UniProt O70589 1-323)
T1 construct: mouse CASK (calcium/calmodulin-dependent serine kinase), N-terminal kinase domain, residues 1-323; Cloned into pET21a, the same vector as the C-terminally tagged PTPδ D2-His6, yet the methods call this tag N-terminal; also called His6-CASK; N-terminal kinase domain of CASK; not shown: His6, N-terminal, kept
T1 sequence (looked up): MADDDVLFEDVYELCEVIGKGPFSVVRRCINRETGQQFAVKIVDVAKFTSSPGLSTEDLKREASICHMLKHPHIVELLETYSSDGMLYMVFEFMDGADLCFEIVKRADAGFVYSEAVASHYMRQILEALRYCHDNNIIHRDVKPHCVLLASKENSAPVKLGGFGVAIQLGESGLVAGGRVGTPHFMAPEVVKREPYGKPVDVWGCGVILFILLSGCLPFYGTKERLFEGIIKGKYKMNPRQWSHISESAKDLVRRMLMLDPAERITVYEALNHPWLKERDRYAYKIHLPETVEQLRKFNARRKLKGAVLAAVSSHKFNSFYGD

B1: mouse Liprin-α3 tSAM (residues 808–1114) (domain or fragment)
chain: not shown
notes: mouse Liprin-α3, tandem SAM domain (αN, SAM1-SAM3), residues 808-1114; also called WT; source: E. coli Rosetta (DE3), purified (Glutathione Sepharose, Resource Q, GST cleaved off by HRV3c protease, Superdex 200); not shown: GST, N-terminal, cleaved

Experiments:
[1] = target: T1, mouse CASK N-terminal kinase domain …; assay: pull-down; GST pull-down (Fig. 5c): Liprin-α3 tSAM and/or His6-CASK mixed with GST-PTPδ D2 at equimolar ratio (20 µM) in PBS with 0.1% Triton X-100, then immobilised on Glutathione Sepharose FF; eluted with glutathione; SDS-PAGE, Coomassie; details: both partners purified
[2] = target: B1; assay: SPR; Biacore T200, 25 °C, 10 mM Hepes-NaOH pH 7.5, 150 mM NaCl, 0.005% Tween-20; wild-type or mutant PTPδ D2-His6 amine-coupled on a CM5 chip; wild-type or mutant Liprin-α3 tSAM injected, twofold dilutions from 40 µM to 39 nM; equilibrium KD; details: both partners purified

binding result [1]	Kd [2] [µM]	Binder
binds		B1
	32	PTPδ D2-His6 F1399A (domain or fragment) NTEVPARNLYAYIQKLTQIETGENVTGMELEFKRLASSKAHTSRFISANLPCNKFKNRLVNIMPYESTRVCLQPIRGVEGSDYINASFLDGYRQQKAYIATQGPLAETTEDFWRMLWEHNSTIVVMLTKLREMGREKCHQYWPAERSARYQYFVVDPMAEYNMPQYILREFKVTDARDGQSRTVRQAQFTDWPEQGVPKSGEGFIDFIGQVHKTKEQFGQDGPISVHCSAGVGRTGVFITLSIVLERMRYEGVVDIFQTVKMLRTQRPAMVQTEDQYQFCYRAALEYLGSFDHYAT
	> 40	PTPδ D2-His6 L1380A (domain or fragment) NTEVPARNLYAYIQKLTQIETGENVTGMELEFKRLASSKAHTSRFISANLPCNKFKNRLVNIMPYESTRVCLQPIRGVEGSDYINASFLDGYRQQKAYIATQGPLAETTEDFWRMLWEHNSTIVVMLTKLREMGREKCHQYWPAERSARYQYFVVDPMAEYNMPQYIAREFKVTDARDGQSRTVRQFQFTDWPEQGVPKSGEGFIDFIGQVHKTKEQFGQDGPISVHCSAGVGRTGVFITLSIVLERMRYEGVVDIFQTVKMLRTQRPAMVQTEDQYQFCYRAALEYLGSFDHYAT
	18	PTPδ D2-His6 D1504A (domain or fragment) NTEVPARNLYAYIQKLTQIETGENVTGMELEFKRLASSKAHTSRFISANLPCNKFKNRLVNIMPYESTRVCLQPIRGVEGSDYINASFLDGYRQQKAYIATQGPLAETTEDFWRMLWEHNSTIVVMLTKLREMGREKCHQYWPAERSARYQYFVVDPMAEYNMPQYILREFKVTDARDGQSRTVRQFQFTDWPEQGVPKSGEGFIDFIGQVHKTKEQFGQDGPISVHCSAGVGRTGVFITLSIVLERMRYEGVVDIFQTVKMLRTQRPAMVQTEDQYQFCYRAALEYLGSFAHYAT
	11.4	PTPδ D2-His6 Y1506A (domain or fragment) NTEVPARNLYAYIQKLTQIETGENVTGMELEFKRLASSKAHTSRFISANLPCNKFKNRLVNIMPYESTRVCLQPIRGVEGSDYINASFLDGYRQQKAYIATQGPLAETTEDFWRMLWEHNSTIVVMLTKLREMGREKCHQYWPAERSARYQYFVVDPMAEYNMPQYILREFKVTDARDGQSRTVRQFQFTDWPEQGVPKSGEGFIDFIGQVHKTKEQFGQDGPISVHCSAGVGRTGVFITLSIVLERMRYEGVVDIFQTVKMLRTQRPAMVQTEDQYQFCYRAALEYLGSFDHAAT

From PMC6994669 (Nature Communications, 2020)
